Laboratory results as given in patent publication US7202329 (MYRIAD GENETICS, dated 2007).

Experiments:
Test in all cases: yeast two-hybrid
Tsg101 (aa 240-391) = molecular target: T1, Tsg101 (aa 240-391) (human, UniProt Q99816 240-390)
T1 construct: range 240-391; also called C-terminal fragment of Tsg101; amino acid residues 240-390
T1 sequence (looked up): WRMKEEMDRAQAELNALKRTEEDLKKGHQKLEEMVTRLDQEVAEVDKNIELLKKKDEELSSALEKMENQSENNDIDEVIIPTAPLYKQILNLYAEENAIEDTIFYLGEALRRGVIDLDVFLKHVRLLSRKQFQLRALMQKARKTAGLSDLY

Tsg101 (aa 231-391) = molecular target: T2, Tsg101 (aa 231-391) (human, UniProt Q99816 231-390)
T2 sequence (looked up): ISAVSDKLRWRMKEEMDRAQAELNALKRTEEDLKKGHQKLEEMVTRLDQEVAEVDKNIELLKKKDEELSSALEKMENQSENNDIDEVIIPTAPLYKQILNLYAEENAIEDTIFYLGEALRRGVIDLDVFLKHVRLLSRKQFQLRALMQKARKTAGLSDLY

Tsg101 (aa 50-391) = molecular target: T3, Tsg101 (aa 50-391) (human, UniProt Q99816 50-390)
T3 construct: range 50-391
T3 sequence (looked up): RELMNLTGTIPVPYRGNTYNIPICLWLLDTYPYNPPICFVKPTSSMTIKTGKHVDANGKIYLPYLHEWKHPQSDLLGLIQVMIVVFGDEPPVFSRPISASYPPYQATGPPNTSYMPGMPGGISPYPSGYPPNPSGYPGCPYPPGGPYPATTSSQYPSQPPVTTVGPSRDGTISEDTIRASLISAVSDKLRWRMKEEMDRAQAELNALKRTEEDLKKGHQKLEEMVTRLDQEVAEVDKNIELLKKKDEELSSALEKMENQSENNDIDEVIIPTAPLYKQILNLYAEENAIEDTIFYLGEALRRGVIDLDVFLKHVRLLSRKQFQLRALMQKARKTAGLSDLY

Tsg101 (aa 12-326) = molecular target: T4, Tsg101 (aa 12-326) (human, UniProt Q99816 12-326)
T4 sequence (looked up): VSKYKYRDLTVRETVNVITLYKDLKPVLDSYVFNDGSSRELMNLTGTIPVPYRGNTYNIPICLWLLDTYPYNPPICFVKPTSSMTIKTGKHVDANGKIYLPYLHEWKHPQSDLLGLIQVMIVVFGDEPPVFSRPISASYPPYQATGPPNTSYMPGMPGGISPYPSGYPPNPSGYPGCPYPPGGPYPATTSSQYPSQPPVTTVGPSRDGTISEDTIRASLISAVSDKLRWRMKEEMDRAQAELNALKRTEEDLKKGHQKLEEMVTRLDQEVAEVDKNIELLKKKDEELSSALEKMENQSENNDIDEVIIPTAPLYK

Tsg101 (aa 140-270) = molecular target: T5, Tsg101 (aa 140-270) (human, UniProt Q99816 140-270)
T5 construct: range 140-270
T5 sequence (looked up): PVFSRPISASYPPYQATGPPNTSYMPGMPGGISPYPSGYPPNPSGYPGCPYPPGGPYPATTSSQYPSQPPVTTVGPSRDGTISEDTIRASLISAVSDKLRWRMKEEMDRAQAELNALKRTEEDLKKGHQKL

B1: GTPase-activating protein 1 (aa 1439-1567) (other, UniProt P46940 1439-1567, looked up)
chain: KKSKSVKEDSNLTLQEKKEKIQTGLKKLTELGTVDPKNKYQELINDIARDIRNQRRYRQRRKAELVKLQQTYAALNSKATFYGEQVDYYKSYIKTCLDNLASKGKVSKKPREMKGKKSKKISLKYTAAR
notes: range 1439-1567; also called IQGAP1; IQGAP
binding result (Tsg101 (aa 240-391)): binds

B2: Tropomyosin TM30 p1 (TPM4) (aa 91-142) (other, human, UniProt P67936 91-142, looked up)
chain: MKVIENRAMKDEEKMEIQEMQLKEAKHIAEEADRKYEEVARKLVILEGELER
notes: range 91-142
binding result (Tsg101 (aa 231-391)): binds

B3: mitotic spindle coiled-coil related protein (aa 942-1021) (other, UniProt Q96R06 942-1021, looked up)
chain: LGSDKSAFTRVASMVSLQPAETPGMEESLAEMSIMTTELQSLCSLLQESKEEAIRTLQRKICELQARLQAQEEQHQEVQK
notes: range 942-1021
binding result (Tsg101 (aa 240-391)): binds

B4: Rho-associated (ROCK1) (aa 462-617) (other, UniProt Q13464 462-617, looked up)
chain: KIMKELDEEGNQRRNLESTVSQIEKEKMLLQHRINEYQRKAEQENEKRRNVENEVSTLKDQLEDLKKVSQNSQLANEKLSQLQKQLEEANDLLRTESDTAVRLRKSHTEMSKSISQLESLNRELQERNRILENSKSQTDKDYYQLQAILEAERRDR
notes: also called Rho-associated coiled coil-containing kinase ROCK1
binding result (Tsg101 (aa 231-391)): binds

B5: hypothetical protein FLJ10540 (aa 1-231) (other, UniProt Q53EZ4 1-231, looked up)
chain: MSSRSTKDLIKSKWGSKPSNSKSETTLEKLKGEIAHLKTSVDEITSGKGKLTDKERHRLLEKIRVLEAEKEKNAYQLTEKDKEIQRLRDQLKARYSTTTLLEQLEETTREGERREQVLKALSEEKDVLKQQLSAATSRIAELESKTNTLRLSQTVAPNCFNSSINNIHEMEIQLKDALEKNQQWLVYDQQREVYVKGLLAKIFELEKKTETAAHSLPQQTKKPESEGYLQE
binding result (Tsg101 (aa 50-391)): binds

B6: Golgi autoantigen (Golgin-84) (aa 198-497) (other, UniProt Q8TBA6 198-497, looked up)
chain: SKENVSSNAACPDHTPTPNDDGKSHELSNLRLENQLLRNEVQSLNQEMASLLQRSKETQEELNKARARVEKWNADHSKSDRMTRGLRAQVDDLTEAVAAKDSQLAVLKVRLQEADQLLSTRTEALEALQSEKSRIMQDQSEGNSLQNQALQTFQERLHEADATLKREQESYKQMQSEFAARLNKVEMERQNLAEAITLAERKYSDEKKRVDELQQQVKLYKLNLESSKQELIDYKQKATRILQSKEKLINSLKEGSGFEGLDSSTASSMELEELRHEKEMQREEIQKLMGQIHQLRSELQ
notes: range 198-497
binding result (Tsg101 (aa 12-326)): binds

B7: Golgi autoantigen (Golgin-84) (aa 198-501) (other, UniProt Q8TBA6 198-501, looked up)
chain: SKENVSSNAACPDHTPTPNDDGKSHELSNLRLENQLLRNEVQSLNQEMASLLQRSKETQEELNKARARVEKWNADHSKSDRMTRGLRAQVDDLTEAVAAKDSQLAVLKVRLQEADQLLSTRTEALEALQSEKSRIMQDQSEGNSLQNQALQTFQERLHEADATLKREQESYKQMQSEFAARLNKVEMERQNLAEAITLAERKYSDEKKRVDELQQQVKLYKLNLESSKQELIDYKQKATRILQSKEKLINSLKEGSGFEGLDSSTASSMELEELRHEKEMQREEIQKLMGQIHQLRSELQDMEA
notes: range 198-501
binding result (Tsg101 (aa 12-326)): binds

B8: hypothetical protein FLJ10540 (aa 1-74) (other, UniProt Q53EZ4 1-74, looked up)
chain: MSSRSTKDLIKSKWGSKPSNSKSETTLEKLKGEIAHLKTSVDEITSGKGKLTDKERHRLLEKIRVLEAEKEKNA
notes: range 1-74
binding result (Tsg101 (aa 140-270)): binds

B9: hypothetical protein FLJ10540 (aa 1-120) (other, UniProt Q53EZ4 1-120, looked up)
chain: MSSRSTKDLIKSKWGSKPSNSKSETTLEKLKGEIAHLKTSVDEITSGKGKLTDKERHRLLEKIRVLEAEKEKNAYQLTEKDKEIQRLRDQLKARYSTTTLLEQLEETTREGERREQVLKA
notes: range 1-120
binding result (Tsg101 (aa 140-270)): binds

B10: GTPase-activating protein 1 (aa 1406-1547) (other, UniProt P46940 1406-1547, looked up)
chain: EILETPATSEQEAEHQRAMQRRAIRDAKTPDKMKKSKSVKEDSNLTLQEKKEKIQTGLKKLTELGTVDPKNKYQELINDIARDIRNQRRYRQRRKAELVKLQQTYAALNSKATFYGEQVDYYKSYIKTCLDNLASKGKVSKK
notes: range 1406-1547; also called IQGAP1; IQGAP
binding result (Tsg101 (aa 240-391)): binds

B11: Tropomyosin TM30 p1 (TPM4) (aa 79-142) (other, human, UniProt P67936 79-142, looked up)
chain: EAEKAADESERGMKVIENRAMKDEEKMEIQEMQLKEAKHIAEEADRKYEEVARKLVILEGELER
notes: range 79-142
binding result (Tsg101 (aa 231-391)): binds

B12: hypothetical protein FLJ10540 (aa 1-110) (other, UniProt Q53EZ4 1-110, looked up)
chain: MSSRSTKDLIKSKWGSKPSNSKSETTLEKLKGEIAHLKTSVDEITSGKGKLTDKERHRLLEKIRVLEAEKEKNAYQLTEKDKEIQRLRDQLKARYSTTTLLEQLEETTRE
notes: range 1-110
binding result (Tsg101 (aa 50-391)): binds

B13: Accessory proteins BAP31/BAP29 (BAP31) (aa 184-246) (other, UniProt P51572 184-246, looked up)
chain: LKADLQKLKDELASTKQKLEKAENQVLAMRKQSEGLTKEYDRLLEEHAKLQAAVDGPMDKKEE
notes: range 184-246
binding result (Tsg101 (aa 12-326)): binds

B14: GTPase-activating protein 1 (aa 1463-1568) (other, UniProt P46940 1463-1568, looked up)
chain: LKKLTELGTVDPKNKYQELINDIARDIRNQRRYRQRRKAELVKLQQTYAALNSKATFYGEQVDYYKSYIKTCLDNLASKGKVSKKPREMKGKKSKKISLKYTAARL
notes: range 1463-1568; also called IQGAP1; IQGAP
binding result (Tsg101 (aa 240-391)): binds

B15: GTPase-activating protein 1 (aa 1404-1553) (other, UniProt P46940 1404-1553, looked up)
chain: LTEILETPATSEQEAEHQRAMQRRAIRDAKTPDKMKKSKSVKEDSNLTLQEKKEKIQTGLKKLTELGTVDPKNKYQELINDIARDIRNQRRYRQRRKAELVKLQQTYAALNSKATFYGEQVDYYKSYIKTCLDNLASKGKVSKKPREMKG
notes: range 1404-1553; also called IQGAP1; IQGAP
binding result (Tsg101 (aa 240-391)): binds

B16: GTPase-activating protein 1 (aa 1439-1565) (other, UniProt P46940 1439-1565, looked up)
chain: KKSKSVKEDSNLTLQEKKEKIQTGLKKLTELGTVDPKNKYQELINDIARDIRNQRRYRQRRKAELVKLQQTYAALNSKATFYGEQVDYYKSYIKTCLDNLASKGKVSKKPREMKGKKSKKISLKYTA
notes: range 1439-1565; also called IQGAP1; IQGAP
binding result (Tsg101 (aa 240-391)): binds

B17: Zinc finger protein 231 (ZNF231) (aa 2308-2438) (other, UniProt Q9UPA5 2308-2438, looked up)
chain: EEPLPTTTPAAIKEAAGAPAPAPLAGQKPPADAAPGGGSGALSRPGFEKEEASQEERQRKQQEQLLQLERERVELEKLRQLRLQEELERERVELQRHREEEQLLVQRELQELQTIKHHVLQQQQEERQAQF
notes: range 2308-2438
binding result (Tsg101 (aa 231-391)): binds

B18: Chromosome-associated polypeptide HCAP (aa 208-300) (other, human, UniProt Q9UQE7 208-300, looked up)
chain: EELAQYQKWDKMRRALEYTIYNQELNETRAKLDELSAKRETSGEKSRQLRDAQQDARDKMEDIERQVRELKTKISAMKEEKEQLSAERQEQIK
notes: range 208-300
binding result (Tsg101 (aa 231-391)): binds

B19: hypothetical protein FLJ10540 (aa 115-231) (other, UniProt Q53EZ4 115-231, looked up)
chain: EQVLKALSEEKDVLKQQLSAATSRIAELESKTNTLRLSQTVAPNCFNSSINNIHEMEIQLKDALEKNQQWLVYDQQREVYVKGLLAKIFELEKKTETAAHSLPQQTKKPESEGYLQE
binding result (Tsg101 (aa 50-391)): binds

B20: intersectin 1 (aa 436-547) (other, UniProt Q15811 436-547, looked up)
chain: AAKRELERQRQLEWERNRRQELLNQRNKEQEDIVVLKAKKKTLEFELEALNDKKHQLEGKLQDIRCRLTTQRQEIESTNKSRELRIAEITHLQQQLQESQQMLGRLIPEKQI
notes: range 436-547
binding result (Tsg101 (aa 240-391)): binds

B21: hypothetical protein FLJ10540 (aa 2-132) (other, UniProt Q53EZ4 2-132, looked up)
chain: SSRSTKDLIKSKWGSKPSNSKSETTLEKLKGEIAHLKTSVDEITSGKGKLTDKERHRLLEKIRVLEAEKEKNAYQLTEKDKEIQRLRDQLKARYSTTTLLEQLEETTREGERREQVLKALSEEKDVLKQQL
binding result (Tsg101 (aa 140-270)): binds

B22: hypothetical protein FLJ10540 (aa 1-117) (other, UniProt Q53EZ4 1-117, looked up)
chain: MSSRSTKDLIKSKWGSKPSNSKSETTLEKLKGEIAHLKTSVDEITSGKGKLTDKERHRLLEKIRVLEAEKEKNAYQLTEKDKEIQRLRDQLKARYSTTTLLEQLEETTREGERREQV
notes: range 1-117
binding result (Tsg101 (aa 50-391)): binds

B23: intersectin 1 (aa 437-584) (other, UniProt Q15811 437-584, looked up)
chain: AKRELERQRQLEWERNRRQELLNQRNKEQEDIVVLKAKKKTLEFELEALNDKKHQLEGKLQDIRCRLTTQRQEIESTNKSRELRIAEITHLQQQLQESQQMLGRLIPEKQILNDQLKQVQQNSLHRDSLVTLKRALEAKELARQHLRD
notes: range 437-584
binding result (Tsg101 (aa 240-391)): binds

B24: hypothetical protein FLJ10540 (aa 1-115) (other, UniProt Q53EZ4 1-115, looked up)
chain: MSSRSTKDLIKSKWGSKPSNSKSETTLEKLKGEIAHLKTSVDEITSGKGKLTDKERHRLLEKIRVLEAEKEKNAYQLTEKDKEIQRLRDQLKARYSTTTLLEQLEETTREGERRE
notes: range 1-115
binding result (Tsg101 (aa 140-270)): binds
